Test results taken from doi:10.1101/2021.09.13.460064.
Where two headings read alike, the source gives them in different places. Blank lines part the entries; values can stand above or below the substance they belong to.

Assays:
Experiment in all cases: SEC-MALS
[1] = biological target: His-tagged NcKar9N-αβ• (γ-interface mutant, Tyr363Ala/Arg364Ala) (Naumovozyma castellii)
[2] = biological target: His-tagged NcKar9N-αβ• (γ-interface mutant, Tyr363Ala/Arg364Ala) (Naumovozyma castellii); remark: listed apart in the source
[3] = biological target: His-tagged N. castellii Kar9 N-terminal domain, wild type (NcKar9N-αβγ) (Naumovozyma castellii)
[4] = biological target: His-tagged NcKar9N-α•γ (β-interface mutant, Arg233Ala/Ile237Ala) (Naumovozyma castellii)
[5] = biological target: His-tagged NcKar9N-α•γ (β-interface mutant, Arg233Ala/Ile237Ala) (Naumovozyma castellii); remark: listed apart in the source

- stoichiometry N [1]: < 4
- stoichiometry N [2]: < 4
Substance: His-tagged NcKar9N-αβ• (γ-interface mutant, Tyr363Ala/Arg364Ala) (domain or fragment)

- stoichiometry N [3]: 2
Substance: His-tagged N. castellii Kar9 N-terminal domain, wild type (NcKar9N-αβγ) (domain or fragment)

- stoichiometry N [4]: 2
- stoichiometry N [5]: 2
Substance: His-tagged NcKar9N-α•γ (β-interface mutant, Arg233Ala/Ile237Ala) (domain or fragment)
